Reference: patent US20240109968A1 (NEW YORK UNIVERSITY, published 2024)

Biological target: T1, human galectin-9 CRD2 domain (human, UniProt O00182 227-355, limits assumed)
T1 construct: domain: CRD2; also called human CRD2 domain of galectin-9
Assay: ELISA; antibody titrated over immobilized Galectin-9 CRD2, saturation curve

T1 sequence (O00182 227-355 limits assumed): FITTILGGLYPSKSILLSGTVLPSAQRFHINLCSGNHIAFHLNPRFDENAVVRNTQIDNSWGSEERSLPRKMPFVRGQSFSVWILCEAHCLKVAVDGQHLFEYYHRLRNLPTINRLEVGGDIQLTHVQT

B1: anti-Galectin-9 antibody G9.2-17 (IgG4) (antibody, V domains shown)
VH: EVQLVESGGGLVQPGGSLRLSCAASGFTVSSSSIHWVRQAPGKGLEWVAYISSSSGYTYYADSVKGRFTISADTSKNTAYLQMNSLRAEDTAVYYCARYWSYPSWWPYRGMDYWGQGTLVTVSS
VL: DIQMTQSPSSLSASVGDRVTITCRASQSVSSAVAWYQQKPGKAPKLLIYSASSLYSGVPSRFSGSRSGTDFTLTISSLQPEDFATYYCQQSSTDPITFGQGTKVEIKR
notes: Human IgG4 with S228P (EU); also called G9.2-17(Ig4); G9.2-17 hIgG4 Fab Arm Exchange mut
B1 gave a Kd of less than 1 nM.
